# According to US20220025032A1 (Novartis, published 2022):
# Read-outs that look alike come from different tables or passages of the source.
# T1: membrane-bound human BTC on 293F-hBTC cells (human, UniProt P35070 32-111)
# T1 construct: the transfected construct is not described; also called membrane-anchored BTC
# T1 sequence: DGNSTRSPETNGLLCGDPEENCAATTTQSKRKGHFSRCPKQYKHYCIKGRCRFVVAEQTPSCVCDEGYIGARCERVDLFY
# T2: Human BTC (human, UniProt P35070 32-111)
# T2 construct: Soluble human BTC of the Biacore, ELISA, MSD and cell assays; also called human betacellulin; soluble human BTC
# T2 sequence: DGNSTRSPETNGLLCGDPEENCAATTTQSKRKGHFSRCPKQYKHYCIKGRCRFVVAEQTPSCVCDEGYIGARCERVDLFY
# T3: Rat BTC (rat, UniProt Q9JJM4 32-111)
# T3 sequence: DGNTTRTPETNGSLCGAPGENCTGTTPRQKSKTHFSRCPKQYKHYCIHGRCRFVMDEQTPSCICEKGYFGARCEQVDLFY
# T4: Rabbit BTC (rabbit, UniProt G1SJ89 32-111)
# T4 sequence: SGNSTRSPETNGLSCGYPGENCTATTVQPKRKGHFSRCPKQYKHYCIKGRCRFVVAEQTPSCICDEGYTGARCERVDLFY
# T5: Mouse BTC (mouse, UniProt Q05928 32-111, limits assumed)
# T5 sequence (looked up): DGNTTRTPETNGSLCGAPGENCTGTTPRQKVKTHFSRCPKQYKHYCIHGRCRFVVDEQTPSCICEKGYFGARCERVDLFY
# T6: Cyno BTC (cynomolgus, UniProt A0A2K5X5E5 32-111)
# T6 construct: also called cynomolgus BTC
# T6 sequence: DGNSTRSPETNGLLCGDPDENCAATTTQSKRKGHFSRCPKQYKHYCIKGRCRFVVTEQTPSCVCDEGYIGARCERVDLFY
# T7: Human BTC-avitag-biotin (human, UniProt P35070 32-111, biotin on the avitag)
# T7 construct: also called biotin-BTC; soluble human BTC-avitag-biotin
# T7 sequence: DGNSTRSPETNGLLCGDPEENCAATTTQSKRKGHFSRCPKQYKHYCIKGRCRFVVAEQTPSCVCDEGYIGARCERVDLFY
# Tests used:
# [1] = molecular target: T1, membrane-bound human BTC on 293F-hBTC …; assay: flow cytometry, 293F cells with BTC against 293F
# Human BTC [2] = molecular target: T2, Human BTC; assay: MSD-based inhibition of BTC binding to ErbB4
# Human BTC [3] = molecular target: T2, Human BTC; assay: MSD-based inhibition of BTC binding to ErbB1
# Human VEGF165 [4] = molecular target: T8, Human VEGF165 (human, UniProt P15692 27-191); assay: SPR Biacore T200, anti-Fab capture
# T8 construct: mature; biotinylated in the VEGFR2 ELISAs; also called human VEGF-A; VEGF-A
# T8 sequence (P15692 other isoform, or with tags, fused parts or gaps): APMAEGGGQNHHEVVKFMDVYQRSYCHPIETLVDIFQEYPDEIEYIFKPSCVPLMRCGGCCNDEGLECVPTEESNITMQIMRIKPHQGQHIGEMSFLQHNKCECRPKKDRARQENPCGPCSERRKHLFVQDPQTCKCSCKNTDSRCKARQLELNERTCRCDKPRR
# Rat BTC = molecular target: T3, Rat BTC; assay: SPR (Biacore/ProteOn)
# Human BTC [5] = molecular target: T2, Human BTC; assay: SPR (Biacore/ProteOn)
# Rabbit BTC = molecular target: T4, Rabbit BTC; assay: SPR (Biacore/ProteOn)
# Mouse BTC = molecular target: T5, Mouse BTC; assay: SPR (Biacore/ProteOn)
# Cyno BTC = molecular target: T6, Cyno BTC; assay: SPR (Biacore/ProteOn)
# Human BTC [6] = molecular target: T2, Human BTC; assay: cell-based inhibition of BTC binding to ErbB4
# Human BTC-avitag-biotin [7] = molecular target: T7, Human BTC-avitag-biotin; assay: flow cytometry: inhibition of biotin-BTC binding to HKB11 cells over-expressing ErbB1; y axis Fluorescent Intensity
# Method: (§1) In order to assess potency of the Fabs and bispecific in neutralizing binding of BTC to its receptor Erb 1 or ErbB4, the following assay was performed. HKB11 over-expressing either ErbB1 or ErbB4 cells were plated 1×10⁵ cells/well. Cells were washed once with FACS buffer by spun down at 1200 rpm for 5 minutes and supernatant removed. Next, the Fab sample dilutions and BTC were prepared in FACS buffer. Human BTC-avitag-biotin was diluted to a fixed concentration of 15 nM. The test Fab samples were prepared at a starting concentration of 40 nM and titrated for 9 points at a serial dilution of 1:2. Both biotin-BTC and the test Fab samples are incubated for 30 minutes at room temperature. The pre-incubated samples were then added to the cell plate at 100 μl per well in duplicate and incubated for 1 hour on ice. The plate was then washed once in FACS buffer and spun down at 1200 rpm for 5 minutes and supernatant removed. After suspending the cell pellet with 100 μl/well of diluted secondary antibody streptavidin-Alexa Fluor488 (1:2000) in FACS buffer, the cells were then incubated for 60 min on ice. The cells were washed once with FACS buffer and re-suspended in 120 μl of FACS buffer for flow cytometric analysis.
# (§2) Measurements were performed on Attune Flow Cytometry machine. Data were analysed using the Flow Jo software. The live cell populations analysed were gated in forward and side scattering (FSC-A/SSC-A dot plot). The interval gate was established on the control histogram, which was obtained with sample incubated in streptavidin-Alexa Fluor488 only, and subsequently, determined percent of positive binding events of cells carrying membrane-bound receptor ErbB1 or ErbB4 and biotin-BTC. The median of fluorescence intensity (MFI) value was also derived for the live cell population. MFI values were then used to calculate for percent inhibition of test sample and subsequently plotted in GraphPad Prism 7.03 using nonlinear regression (curve fit) model to generate IC50 value.
# Human BTC [8] = molecular target: T2, Human BTC; assay: cell-based inhibition of BTC binding to ErbB1
# Human BTC-avitag-biotin [9] = molecular target: T7, Human BTC-avitag-biotin; assay: flow cytometry: inhibition of biotin-BTC binding to HKB11 cells over-expressing ErbB4; y axis Fluorescent Intensity
# Method: as §1, §2
# [10] = molecular target: T1, membrane-bound human BTC on 293F-hBTC …; assay: flow cytometry on 293F cells with membrane-bound human BTC; y axis % Pos Binding
# Method: (§3) After washing the cells, the cells were dissociated using Versene at 37° C. The cells were washed with FACS buffer and plated at 100 μl in a 96 well plate using cells at 1×10⁶ cells/ml. Then 100 μl of a serial dilution of antibodies starting at 50 nM was used. The cells were incubated, washed and then treated with the secondary anti-human Fab-FITC antibody. The antibodies only bound to the cells expressing BTC. After which the cells were washed and analyzed on the Attune Flow Cytometry. All data analysis was carried out using Flow Jo software.
# In FIG. 6A, Flow cytometry was used to assess the binding of NVS11 to membrane-bound BTC using an anti-human Fab antibody for detection.
# Human BTC [11] = molecular target: T2, Human BTC; assay: SPR Biacore T200, anti-Fab capture, antigen as analyte
# Human BTC [12] = molecular target: T2, Human BTC; assay: cell-based or functional assay
# [13] = molecular target: T1, membrane-bound human BTC on 293F-hBTC …; assay: cell-based or functional assay
# Human VEGF165 [14] = molecular target: T8, Human VEGF165; assay: competition ELISA: antibody pre-incubated with 400 pM VEGF-biotin, added to coated VEGFR2, streptavidin-HRP detection; y axis OD
# Method: (§4) The plates were then washed 3 times using 1λTBST. The plates were blocked in 2% BSA diluent (0.1% Tween 20/0.1% TirtonX100) overnight. After blocking, the plates were washed 3 times using TB ST and then the sample mixture was added at 20 μl/well. The sample mixture consisted a final fixed concentration of VEGF-biotin (in-house) at 400 pM and a 15 point 1:2 serial dilution of the antibody starting at 20 nM. The sample mixture was pre-incubated for 1 hour prior to adding to the plate and then incubated for another hour at room temperature on the plate. Afterwards, the plate was washed 3 times using TBST and 20 μl/well of Streptavidin-HRP diluted at 1:5000 was added for an incubation time of 1 hour. The plates were washed 3 times in TBST and then 20 μl/well of TMB substrate was added. TMB is a chromogen that yields a blue color when oxidized. TMB was incubated for 10 minutes until the signal saturated in the no antibody samples, and then 10 μl/well of 2N sulfuric acid was added which then changes the blue color to yellow and this now has a maximum absorbance at 450 nm.
# Human VEGF165 [15] = molecular target: T8, Human VEGF165; assay: as above; remark: listed apart in the source
# Method: as §4
# [16] = molecular target: T1, membrane-bound human BTC on 293F-hBTC …; assay: flow cytometry on 293F cells with membrane-bound human BTC, anti-human Fab detection
# Method: as §3
# Human BTC-avitag-biotin [17] = molecular target: T7, Human BTC-avitag-biotin; assay: flow cytometry, BTC-ErbB4 Cell Binding Inhibition with HKB11 cells over-expressing human ErbB4
# Method: as §1, with “The plate was then washed once in FACS buffer and spun down at 1200 rpm for 5 minutes and supernatant removed. After suspending the cell pellet with 100 μl/well of diluted secondary antibody streptavidin-Alexa Fluor488 (1:2000) in FACS buffer, the cells were then incubated for 60 min on ice. The cells were washed once with FACS buffer and re-suspended in 120 μl of FACS buffer for flow cytometric analysis.” left out
# as §2, with “MFI values were then used to calculate for percent inhibition of test sample and subsequently plotted in GraphPad Prism 7.03 using nonlinear regression (curve fit) model to generate IC50 value.” left out
# Human VEGF165 [18] = molecular target: T8, Human VEGF165; assay: SPR Biacore T200, anti-Fab capture, antigen as analyte (cells shifted left after the merged BTC cell)
# Human BTC [19] = molecular target: T2, Human BTC; assay: sandwich ELISA: BTC coated, Fab titrated, detection with VEGF-biotin (bridging readout)
# Method: A sandwich enzyme linked immunosorbent assay (ELISA) was performed by coating either BTC or VEGF, then adding a titration of NVS11 followed by detection with the second target, either biotinylated BTC or biotinylated VEGF. […] Neither of the single Fabs, NVS1 or NVS8, could bind to both BTC and VEGF at the same time.
# Human VEGF165 [20] = molecular target: T8, Human VEGF165; assay: competition ELISA: antibody pre-incubated with biotinylated human VEGF, added to coated human VEGFR2-Fc, streptavidin-HRP detection; blocked partner VEGFR2-Fc
# Method: NVS11 neutralization of VEGF was determined by ELISA. Various concentrations of NVS11 was pre-incubated with biotinylated human VEGF and added to VEGFR2-Fc coated plates.
# Human VEGF165 [21] = molecular target: T8, Human VEGF165; assay: competition ELISA: antibody pre-incubated with 400 pM VEGF-biotin, added to coated VEGFR2, streptavidin-HRP detection; y axis OD; remark: listed apart in the source
# Method: as §4
# [22] = molecular target: T1, membrane-bound human BTC on 293F-hBTC …; assay: flow cytometry on 293F cells with membrane-bound human BTC; y axis % Pos Binding; remark: listed apart in the source
# Method: as §3
"Binding to membrane-anchored BTC (median, X above 293F) [1]",MSD-based binding inhibition BTC/ErbB4 (Human BTC [2]),MSD-based binding inhibition BTC/ErbB1 (Human BTC [3]),Kd (Rat BTC),Kd (Human BTC [5]),Kd (Rabbit BTC),Kd (Mouse BTC),Kd (Cyno BTC),Cell-based binding inhibition BTC/ErbB4 (Human BTC [6]),IC50 (Human BTC-avitag-biotin [7]),Cell-based binding inhibition BTC/ErbB1 (Human BTC [8]),IC50 (Human BTC-avitag-biotin [9]),Kd (Human BTC [11]),ADR/Res pErbB3 (IC50 in nM) (Human BTC [12]),Neutralization of juxtacrine signaling [13],Binder,further results
> 10 X above 293F,> 90%,> 90%,0.02 nM,0.0014 nM,0.017 nM,< 0.001 nM,0.0054 nM,> 90%,1.81 nM,> 90%,2.04 nM,0.0044 nM,7.89 nM,99%,"NVS3 (Fab, V domains shown, also called Fab NVS3; anti-BTC Fab) VH: QVQLLESGGGLVQPGGSLRLSCAASGFTFSSYAMSWVRQAPGKGLEWVSGLGHVGYTTYTDSVKGRFTISRDNSKNTLYLQMNSLRAEDTAVYYCARDYLDFGYYFDVWGQGTLVTVSS VL: SYELTQPLSVSVALGQTARITCSGDKIGKKYVHWYQQKPGQAPVLVIYDDSDRPSGIPERFSGSNSGNTATLTISRAQAGDEADYYCQAWDMQSVVFGGGTKLTVLG",binding result (Human VEGF165 [4]): no binding; EC50 [10]: 0.322 nM; A431 pERK (column head: IC50 in nM; cell printed as percent) (Human BTC [12]): > 90%
,,,,,,,,,,,,,,,"NVS8 (Fab, V domains shown, Fab version of the anti-VEGF 1008 scFv; also called anti-VEGF Fab) VH: EVQLVESGGGLVQPGGSLRLSCTASGFSLTDYYYMTWVRQAPGKGLEWVGFIDPDDDPYYATWAKGRFTISRDNSKNTLYLQMNSLRAEDTAVYYCAGGDHNSGWGLDIWGQGTLVTVSS VL: EIVMTQSPSTLSASVGDRVIITCQASEIIHSWLAWYQQKPGKAPKLLIYLASTLASGVPSRFSGSGSGAEFTLTISSLQPDDFATYYCQNVYLASTNGANFGQGTKLTVLK",IC50 (Human VEGF165 [14]): 1.35 nM; IC50 (Human VEGF165 [15]): 0.737 nM; binding result [16]: no binding (tested: about 25 nM); binding result (Human BTC-avitag-biotin [17]): no binding (tested: about 25 nM); Kd (Human VEGF165 [18]): 0.003 nM; binding result (Human BTC [19]): no binding (tested: about 10-20 nM (last marker hidden)); IC50 (read off the curve) (Human VEGF165 [20]): ~0.7 nM; IC50 (Human VEGF165 [21]): 1.35 nM
> 10 X above 293F,> 90%,> 90%,0.008 nM,0.005 nM,0.001 nM,0.005 nM,0.012 nM,> 90%,1.61 nM,> 90%,1.8 nM,0.0043 nM,6.1 nM,87%,"NVS4 (Fab, V domains shown, also called NVS4 Fab; Fab NVS4) VH: QVQLLESGGGLVQPGGSLRLSCAASGFTFSRYWISWVRQAPGKGLEWVSYIDSTGTFINYADSVKGRFTISRDNSKNTLYLQMNSLRAEDTAVYYCARGGSLFDYWGQGTLVTVSS VL: DIQMTQSPSSLSASVGDRVTITCRASQGIISYLGWYQQKPGKAPKLLIYAASSLQSGVPSRFSGSGSGTDFTLTISSLQPEDFATYYCQQYDALNTFGQGTKVEIKR",EC50 [22]: 0.238 nM; A431 pERK (IC50 in nM) (Human BTC [12]): 0.49 nM; inhibition (Human BTC [12]): 99.4%
